Reference: PMC10806181
Where two headings read alike, the source gives them in different places.

Columns and labels:
[1] = molecular target: Sho-Stl, enzymatically biotinylated on a C-terminal Avi-tag (Staphylococcus hominis); test: BLI
[2] = molecular target: Sho-Stl-NDY bound to the streptavidin sensor (Staphylococcus hominis); test: BLI
[3] = molecular target: Sa-Stl, enzymatically biotinylated on a C-terminal Avi-tag (Staphylococcus aureus (SaPIbov1)); test: BLI
[4] = molecular target: Sho-Stl, enzymatically biotinylated on a C-terminal Avi-tag (Staphylococcus hominis); test: BLI; remark: listed apart in the source
[5] = molecular target: human dUTPase, enzymatically biotinylated on an N-terminal Avi-tag (human); test: BLI
[6] = molecular target: Stl master repressor of the Staphylococcus aureus SaPIbov1 pathogenicity island (Staphylococcus aureus (SaPIbov1)); test: BLI; dimer to monomers; KDIM estimated by probing dimerization constants until the ka values of the two BLI set-ups (Stl or human dUTPase on the sensor) were close to equal
[7] = molecular target: Stl master repressor of the Staphylococcus aureus SaPIbov1 pathogenicity island (Staphylococcus aureus (SaPIbov1)); test: BLI + other: steady state dUTPase activity assay; dimer to monomers; rough estimate of KDIM from the BLI KD and the remaining activity of 50 nM human dUTPase at 200 and 300 nM Stl, assuming no competition of substrate binding
[8] = molecular target: Mycobacterium tuberculosis dUTPase, enzymatically biotinylated on an N-terminal Avi-tag (Mycobacterium tuberculosis) (UniProt P9WNS5); test: BLI
[9] = molecular target: Stl repressor of the Staphylococcus hominis ShoCI794_SEPI pathogenicity island (Staphylococcus hominis); test: cross-linking; chemical crosslinking of Sho-Stl in solution (Fig. S1)
[10] = molecular target: Stl repressor of the Staphylococcus hominis ShoCI794_SEPI pathogenicity island (Staphylococcus hominis); test: SEC; gelfiltration of Sho-Stl (Fig. S1)
[11] = molecular target: Stl repressor of the Staphylococcus hominis ShoCI794_SEPI pathogenicity island (Staphylococcus hominis); test: BLI + other: steady state dUTPase activity assay; dimer to monomers; rough estimate of KDIM from the BLI KD and the remaining activity of 50 nM human dUTPase at 200 and 300 nM Stl, assuming no competition of substrate binding

**Q.** How did the Kd [1] turn out when human dUTPase (enzyme) was run?
**A.** The Kd was 4540 pM.

**Q.** And the koff [1]?
**A.** The koff was 0.00023 s⁻¹.

**Q.** And the kon [1]?
**A.** Its kon is 52000 M⁻¹ s⁻¹.

**Q.** What about the Kd [2] of the same substance?
**A.** The Kd was 7620 pM.

**Q.** And the koff [2]?
**A.** Its koff is 0.00024 s⁻¹.

**Q.** And the kon [2]?
**A.** The kon was 31000 M⁻¹ s⁻¹.

**Q.** What about the Kd [3] of the same substance?
**A.** Its Kd is 180 pM.

**Q.** And the koff [3]?
**A.** Its koff is 0.00027 s⁻¹.

**Q.** What about the kon [3] of the same substance?
**A.** The kon was 1.5e+06 M⁻¹ s⁻¹.

**Q.** What about the koff [4] of the same substance?
**A.** The koff was 0.00025 s⁻¹.

**Q.** Which results are given for “Stl master repressor of the Staphylococcus aureus SaPIbov1 pathogenicity island (natural protein)”?
**A.** Kd [5]: 9750 pM; koff [5]: 0.00065 s⁻¹; kon [5]: 67000 M⁻¹ s⁻¹; Kd [6]: 120 pM; Kd [7]: 1 pM

**Q.** “Stl repressor of the Staphylococcus hominis ShoCI794_SEPI pathogenicity island (natural protein)” was tested. Which Kd [8] did it give?
**A.** The Kd was 35000 pM.

**Q.** What about the koff [8] of the same substance?
**A.** Its koff is 0.00041 s⁻¹.

**Q.** What about the kon [8] of the same substance?
**A.** The kon was 12000 M⁻¹ s⁻¹.

**Q.** And the steady state dUTPase enzyme activity of 50 nM human dUTPase at 200 nM and 300 nM Sho-Stl (remaining activity); Sho-Stl does not inhibit the human dUTPase (% remaining activity) (human dUTPase (human))?
**A.** The steady state dUTPase enzyme activity of 50 nM human dUTPase at 200 nM and 300 nM Sho-Stl (remaining activity); Sho-Stl does not inhibit the human dUTPase (% remaining activity) was 100.

**Q.** And the stoichiometry N [9]?
**A.** Its stoichiometry N is 2.

**Q.** What about the stoichiometry N [10] of the same substance?
**A.** Its stoichiometry N is 2.

**Q.** What about the Kd [11] of the same substance?
**A.** Its Kd is 1 pM.

**Q.** What does the source list for “Mycobacterium tuberculosis dUTPase (from UniProt P9WNS5 1-154) (enzyme)”?
**A.** Kd [1]: 13 pM; koff [1]: 2.9e-07 s⁻¹; kon [1]: 22000 M⁻¹ s⁻¹
